Assay results: US20240392004A1

Tests used:
Test in all cases: cell-based or functional assay
[1] = biological target: T1, IFN-γ receptor (IFNGR1 and IFNGR2) (UniProt P15260)
T1 sequence (looked up) 1: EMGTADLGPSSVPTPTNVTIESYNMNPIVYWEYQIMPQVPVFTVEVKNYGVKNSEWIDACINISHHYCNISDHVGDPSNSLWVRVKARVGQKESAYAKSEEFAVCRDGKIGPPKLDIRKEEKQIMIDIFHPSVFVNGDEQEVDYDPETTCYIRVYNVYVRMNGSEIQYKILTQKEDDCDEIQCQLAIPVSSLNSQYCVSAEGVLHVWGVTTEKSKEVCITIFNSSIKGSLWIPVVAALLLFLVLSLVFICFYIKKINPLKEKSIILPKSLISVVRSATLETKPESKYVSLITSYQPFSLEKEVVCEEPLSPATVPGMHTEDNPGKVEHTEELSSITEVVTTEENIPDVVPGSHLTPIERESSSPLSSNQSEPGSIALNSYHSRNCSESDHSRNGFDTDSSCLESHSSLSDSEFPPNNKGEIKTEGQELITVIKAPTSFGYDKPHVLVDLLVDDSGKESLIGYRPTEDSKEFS
T1 sequence (looked up) 2: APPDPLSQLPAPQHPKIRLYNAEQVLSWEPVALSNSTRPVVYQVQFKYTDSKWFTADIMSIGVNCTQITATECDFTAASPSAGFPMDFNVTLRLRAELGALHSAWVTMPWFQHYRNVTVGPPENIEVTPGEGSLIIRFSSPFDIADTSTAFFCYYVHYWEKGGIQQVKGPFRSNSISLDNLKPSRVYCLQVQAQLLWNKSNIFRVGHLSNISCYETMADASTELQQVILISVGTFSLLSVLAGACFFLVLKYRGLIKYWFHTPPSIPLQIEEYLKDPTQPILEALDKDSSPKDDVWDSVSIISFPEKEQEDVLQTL

[2] = biological target: IL-10 receptor (hIL-10Rα and hIL-10Rβ) (human) (UniProt Q13651)
[3] = biological target: human IL-12 receptor complex (IL-12Rβ1 and IL-12Rβ2) (human) (UniProt P42701)
[4] = biological target: IL-23 receptor complex (IL-12Rβ1 and IL-23R) (UniProt P42701)
IL-23 receptor complex (IL-12Rβ1 and IL-23R), sequence (Q5VWK5 24-629 limits assumed, chain 2 of 2, other chains not shown): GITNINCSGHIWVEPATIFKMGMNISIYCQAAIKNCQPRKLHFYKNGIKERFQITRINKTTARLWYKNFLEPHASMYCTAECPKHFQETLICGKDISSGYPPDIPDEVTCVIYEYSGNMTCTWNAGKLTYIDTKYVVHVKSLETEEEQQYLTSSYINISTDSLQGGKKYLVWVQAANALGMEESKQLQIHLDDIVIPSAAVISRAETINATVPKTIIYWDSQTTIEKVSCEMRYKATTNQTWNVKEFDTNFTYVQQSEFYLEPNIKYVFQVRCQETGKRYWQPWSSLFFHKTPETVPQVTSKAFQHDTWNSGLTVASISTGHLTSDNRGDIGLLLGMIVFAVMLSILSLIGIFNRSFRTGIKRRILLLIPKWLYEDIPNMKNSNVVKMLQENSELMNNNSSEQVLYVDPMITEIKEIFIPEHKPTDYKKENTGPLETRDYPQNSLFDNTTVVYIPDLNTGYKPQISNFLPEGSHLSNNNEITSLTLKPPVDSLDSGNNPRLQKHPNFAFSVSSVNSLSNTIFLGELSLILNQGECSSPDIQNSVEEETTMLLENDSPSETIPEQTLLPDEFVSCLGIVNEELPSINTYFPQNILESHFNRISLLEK

recombinant human IL-12, sequence (P29459 23-219 limits assumed): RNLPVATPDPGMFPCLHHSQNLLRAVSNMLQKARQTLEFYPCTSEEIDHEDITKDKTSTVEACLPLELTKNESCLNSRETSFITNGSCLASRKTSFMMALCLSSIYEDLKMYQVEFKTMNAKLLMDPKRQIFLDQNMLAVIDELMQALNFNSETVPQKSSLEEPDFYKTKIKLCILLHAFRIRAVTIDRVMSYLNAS
recombinant human IL-12, sequence (P29460 23-328 limits assumed): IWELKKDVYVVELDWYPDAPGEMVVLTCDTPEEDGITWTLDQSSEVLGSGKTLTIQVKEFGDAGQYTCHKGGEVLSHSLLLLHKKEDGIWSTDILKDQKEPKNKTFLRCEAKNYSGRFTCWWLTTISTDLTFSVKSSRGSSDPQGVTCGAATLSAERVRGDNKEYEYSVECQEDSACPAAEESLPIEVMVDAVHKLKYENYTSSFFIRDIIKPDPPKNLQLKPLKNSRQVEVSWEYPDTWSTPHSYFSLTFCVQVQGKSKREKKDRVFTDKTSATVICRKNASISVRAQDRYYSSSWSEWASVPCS
human IL-12 receptor complex (IL-12Rβ1 and IL-12Rβ2) (human), sequence (Q99665 24-862, chain 2 of 2, other chains not shown): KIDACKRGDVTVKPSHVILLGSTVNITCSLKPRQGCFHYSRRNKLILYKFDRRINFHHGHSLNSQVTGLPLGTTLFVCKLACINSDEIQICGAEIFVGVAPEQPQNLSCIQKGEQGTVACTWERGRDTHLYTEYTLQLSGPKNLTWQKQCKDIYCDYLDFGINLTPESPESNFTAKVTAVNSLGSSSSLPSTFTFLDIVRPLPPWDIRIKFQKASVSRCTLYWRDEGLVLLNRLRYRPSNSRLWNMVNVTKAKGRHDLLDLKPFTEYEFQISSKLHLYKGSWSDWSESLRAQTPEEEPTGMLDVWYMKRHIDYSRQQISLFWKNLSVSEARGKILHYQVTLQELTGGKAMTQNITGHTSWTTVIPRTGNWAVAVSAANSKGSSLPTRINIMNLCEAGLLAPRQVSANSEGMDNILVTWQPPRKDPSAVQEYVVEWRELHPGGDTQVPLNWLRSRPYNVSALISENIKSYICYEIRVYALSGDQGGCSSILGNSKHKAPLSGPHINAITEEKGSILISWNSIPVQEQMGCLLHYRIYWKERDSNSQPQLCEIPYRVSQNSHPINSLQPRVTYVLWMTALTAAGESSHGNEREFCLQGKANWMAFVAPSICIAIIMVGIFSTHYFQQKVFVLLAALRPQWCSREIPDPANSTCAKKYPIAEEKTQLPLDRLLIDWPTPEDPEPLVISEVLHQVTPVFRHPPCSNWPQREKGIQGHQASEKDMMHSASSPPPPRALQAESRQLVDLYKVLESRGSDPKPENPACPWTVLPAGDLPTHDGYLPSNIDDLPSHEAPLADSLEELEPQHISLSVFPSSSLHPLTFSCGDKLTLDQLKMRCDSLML
recombinant human IFN-γ (free state), sequence (P01579 24-166 limits assumed): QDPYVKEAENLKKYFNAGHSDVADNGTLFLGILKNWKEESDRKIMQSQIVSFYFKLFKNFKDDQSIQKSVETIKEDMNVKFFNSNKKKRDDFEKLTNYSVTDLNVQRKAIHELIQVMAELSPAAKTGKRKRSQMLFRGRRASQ
IL-10 receptor (hIL-10Rα and hIL-10Rβ) (human), sequence (Q13651 22-578, chain 1 of 2): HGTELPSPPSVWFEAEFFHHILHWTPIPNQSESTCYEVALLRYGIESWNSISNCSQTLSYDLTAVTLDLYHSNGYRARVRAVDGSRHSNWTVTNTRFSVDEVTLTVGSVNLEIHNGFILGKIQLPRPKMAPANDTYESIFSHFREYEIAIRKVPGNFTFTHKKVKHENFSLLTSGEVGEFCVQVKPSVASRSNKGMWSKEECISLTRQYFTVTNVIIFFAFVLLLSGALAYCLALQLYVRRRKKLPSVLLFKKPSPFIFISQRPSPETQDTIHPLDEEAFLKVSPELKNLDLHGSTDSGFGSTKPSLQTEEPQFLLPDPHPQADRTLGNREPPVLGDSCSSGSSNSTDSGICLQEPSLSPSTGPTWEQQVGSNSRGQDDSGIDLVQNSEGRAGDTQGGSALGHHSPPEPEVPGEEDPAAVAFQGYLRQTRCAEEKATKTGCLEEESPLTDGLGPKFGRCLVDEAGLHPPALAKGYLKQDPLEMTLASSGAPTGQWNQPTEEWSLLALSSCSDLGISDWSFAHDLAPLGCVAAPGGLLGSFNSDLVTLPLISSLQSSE
IL-10 receptor (hIL-10Rα and hIL-10Rβ) (human), sequence (Q08334 20-325, chain 2 of 2, further chain): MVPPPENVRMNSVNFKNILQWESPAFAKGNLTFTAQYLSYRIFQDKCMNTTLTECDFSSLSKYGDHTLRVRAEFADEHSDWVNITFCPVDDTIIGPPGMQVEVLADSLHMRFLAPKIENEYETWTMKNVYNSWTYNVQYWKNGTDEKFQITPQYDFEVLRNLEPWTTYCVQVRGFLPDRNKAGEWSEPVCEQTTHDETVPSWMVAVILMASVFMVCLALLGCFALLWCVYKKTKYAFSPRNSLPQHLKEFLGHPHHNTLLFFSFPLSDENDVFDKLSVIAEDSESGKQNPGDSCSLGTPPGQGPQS
recombinant human IL-23 (free state), sequence (Q9NPF7 20-189 limits assumed): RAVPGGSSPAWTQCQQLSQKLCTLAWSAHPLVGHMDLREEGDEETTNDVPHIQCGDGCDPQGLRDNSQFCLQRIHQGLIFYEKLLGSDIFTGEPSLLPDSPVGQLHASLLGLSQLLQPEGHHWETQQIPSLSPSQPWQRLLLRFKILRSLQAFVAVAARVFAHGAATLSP
recombinant human IL-23 (free state), sequence (P29460 23-328 limits assumed): as the sequence (P29460 23-328 limits assumed) above

Work on “recombinant human IFN-γ (free state) (from UniProt P01579 24-166) (ligand)” yielded an IFN-γ signal transduction, HEK-IFN-γ [1] of 100%, an IFN-γ signal transduction, HEK-IFN-γ cells, % of rIFN-γ [1] of 100% and an IFN-γ signal transduction, HEK-IFN-γ-PD-1 [1] of 100%. The IFN-γ signal transduction, HEK-IFN-γ-TIGIT [1] was 100% and the IFN-γ signal transduction, HEK-PD-1-IFN-γ cells, % of rIFN-γ [1] was 100%.
“recombinant human IL-10 (free state) (from UniProt P22301 19-178) (ligand)” was tested, and the IL-10 signal transduction, HEK-IL-10 cells, % of rIL-10 [2] was 100% and the IL-10 signal transduction, HEK-PD-1-IL-10 cells, % of rIL-10 [2] was 100%.
Work on “recombinant human IL-12 (from UniProt P29459 23-219; P29460 23-328) (ligand)” yielded an IFN-γ release, activated PBMC [3] of 2300 ng/mL, an IL-12 signal transduction, HEK IL-12 [3] of 100% and an IL-12 signal transduction, HEK-IL-12 [3] of 100%. For the same substance, the IL-12 signal transduction, HEK-IL-12-PD-1 [3] was 100%, the IL-12 signal transduction, HEK-IL-12-PD-1 (high) [3] was 100% and the IL-12 signal transduction, HEK-IL-12-PD-1 (low) [3] was 100%. For the same substance, the IL-12 signal transduction, HEK-IL-12-TIGIT [3] was 100%, the IL-12 signal transduction, HEK-IL-12 cells, % of rIL-12 [3] was 100% and the IL-12 signal transduction, HEK-PD-1-IL-12 [3] was 100%. The IL-12 signal transduction, HEK-PD-1-IL-12 cells, % of rIL-12 [3] was 100%.
Substance “recombinant human IL-23 (free state) (from UniProt Q9NPF7 20-189; P29460 23-328) (ligand)” has an IL-23 signal transduction, HEK-IL-23 cells, % of rIL-23 [4] of 100% and an IL-23 signal transduction, HEK-PD-1-IL-23 cells, % of rIL-23 [4] of 100%.
